Experimental data taken from publication PMC5705802, “A hypermorphic antioxidant response element is associated with increased MS4A6A expression and Alzheimer's disease”.

Assays:
FOS;JUN [1] = target: T1, FOS;JUN (Homo sapiens?;Homo sapiens?, UniProt P01100;P05412 1-380;1-331, |); assay: competition EMSA; unlabeled vs labeled N1; 20 mM HEPES (pH not stated), 4 mM MgCl2, 20 mM KCl, 5 mM DTT, 1 mM EDTA, 100 ug/ml BSA, 4% glycerol, poly(dI-dC), 30 min room temperature; native gel 1X TBE; details: protein: commercial;commercial; tags: ;; copies: 1;1; blunt
NRF1;MAFG [2] = target: T2, NRF1;MAFG (Homo sapiens;Homo sapiens?, UniProt Q14494;O15525 1-772;1-162, |); assay: as above; details: protein: ivt;commercial; tags: His (plasmid pPB-N-His-NRF1, abm PV028854);; copies: 1;1; blunt
NRF2;MAFG [3] = target: T3, NRF2;MAFG (Homo sapiens;Homo sapiens?, UniProt Q16236;O15525 1-605;1-162, |); assay: competition EMSA; excess unlabeled vs labeled N1; 20 mM HEPES (pH not stated), 4 mM MgCl2, 20 mM KCl, 5 mM DTT, 1 mM EDTA, 100 ug/ml BSA, 4% glycerol, poly(dI-dC), 30 min room temperature; native gel 1X TBE; details: protein: recombinant;commercial; tags: His, Flag3 (plasmid pPROHEX-HC-Flag3-NRF2);; copies: 1;1; blunt
NRF1;MAFG [4] = target: T2, NRF1;MAFG; assay: competition EMSA; unlabeled vs labeled N1; legend once says NRF2 for these lanes (apparent typo); 20 mM HEPES (pH not stated), 4 mM MgCl2, 20 mM KCl, 5 mM DTT, 1 mM EDTA, 100 ug/ml BSA, 4% glycerol, poly(dI-dC), 30 min room temperature; native gel 1X TBE; details: protein: ivt;commercial; tags: His (plasmid pPB-N-His-NRF1, abm PV028854);; copies: 1;1; blunt
FOS;JUN [5] = target: T1, FOS;JUN; assay: EMSA; 75 nM each; unlabeled N1 also competes; 20 mM HEPES (pH not stated), 4 mM MgCl2, 20 mM KCl, 5 mM DTT, 1 mM EDTA, 100 ug/ml BSA, 4% glycerol, poly(dI-dC), 30 min room temperature; native gel 1X TBE; details: protein: commercial;commercial; tags: ;; copies: 1;1; label: IRDye-700 as probe; blunt
NRF2;MAFG [6] = target: T3, NRF2;MAFG; assay: EMSA; 75 nM NRF2, 37.5 nM MAFG; unlabeled N1 also competes; 20 mM HEPES (pH not stated), 4 mM MgCl2, 20 mM KCl, 5 mM DTT, 1 mM EDTA, 100 ug/ml BSA, 4% glycerol, poly(dI-dC), 30 min room temperature; native gel 1X TBE; details: protein: recombinant;commercial; tags: His, Flag3 (plasmid pPROHEX-HC-Flag3-NRF2);; copies: 1;1; label: IRDye-700 as probe; blunt
NRF1;MAFG [7] = target: T2, NRF1;MAFG; assay: EMSA; TNT NRF1 2 ul/20 ul, 37.5 nM MAFG; unlabeled N1 also competes; 20 mM HEPES (pH not stated), 4 mM MgCl2, 20 mM KCl, 5 mM DTT, 1 mM EDTA, 100 ug/ml BSA, 4% glycerol, poly(dI-dC), 30 min room temperature; native gel 1X TBE; details: protein: ivt;commercial; tags: His (plasmid pPB-N-His-NRF1, abm PV028854);; copies: 1;1; label: IRDye-700 as probe; blunt

T1 sequence (P01100 whole entry, chain 1 of 2): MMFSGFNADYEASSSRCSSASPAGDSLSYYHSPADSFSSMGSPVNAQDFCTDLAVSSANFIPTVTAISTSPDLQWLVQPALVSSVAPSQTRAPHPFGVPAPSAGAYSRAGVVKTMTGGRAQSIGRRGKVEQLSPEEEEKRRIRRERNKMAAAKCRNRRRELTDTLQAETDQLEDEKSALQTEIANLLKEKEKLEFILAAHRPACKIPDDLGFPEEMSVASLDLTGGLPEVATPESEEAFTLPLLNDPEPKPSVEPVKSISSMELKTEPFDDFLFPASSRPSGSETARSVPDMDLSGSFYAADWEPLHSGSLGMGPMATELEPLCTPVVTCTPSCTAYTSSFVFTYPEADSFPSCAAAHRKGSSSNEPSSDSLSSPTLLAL
T1 sequence (P05412 whole entry, chain 2 of 2): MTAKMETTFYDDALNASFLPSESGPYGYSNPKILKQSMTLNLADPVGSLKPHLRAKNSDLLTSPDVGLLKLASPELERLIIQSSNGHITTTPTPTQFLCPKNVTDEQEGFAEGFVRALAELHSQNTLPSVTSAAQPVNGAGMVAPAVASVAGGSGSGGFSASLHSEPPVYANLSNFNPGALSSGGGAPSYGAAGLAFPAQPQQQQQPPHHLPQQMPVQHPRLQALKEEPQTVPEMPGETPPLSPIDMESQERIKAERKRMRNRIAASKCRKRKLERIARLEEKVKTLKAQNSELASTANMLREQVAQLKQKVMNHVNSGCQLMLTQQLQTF

| Binder | binding result (FOS;JUN [1]) | binding result (NRF1;MAFG [2]) | binding result (NRF2;MAFG [3]) | binding result (NRF1;MAFG [4]) | binding result (FOS;JUN [5]) | binding result (NRF2;MAFG [6]) | binding result (NRF1;MAFG [7]) |
| --- | --- | --- | --- | --- | --- | --- | --- |
| MS4A6A ARE rs667897A (dsDNA) DNA 1: CTGCGCTCCAAACCCGCTGTGTCATACCATACCGGATGT DNA 2: ACATCCGGTATGGTATGACACAGCGGGTTTGGAGCGCAG | binds | binds | binds |  |  |  |  |
| MS4A6A rs667897G (dsDNA) DNA 1: CTGCGCTCCAAACCCGCTGTGTCGTACCATACCGGATGT DNA 2: ACATCCGGTATGGTACGACACAGCGGGTTTGGAGCGCAG | no binding |  | no binding |  |  |  |  |
| NQO1 ARE mutant (NQO1mut) (dsDNA) DNA 1: AATCCGCAGTCACAGACTCCTACGAGAATCTGAGCCTAG DNA 2: CTAGGCTCAGATTCTCGTAGGAGTCTGTGACTGCGGATT | no binding |  |  | no binding |  |  |  |
| NQO1 ARE WT (NQO1WT) (dsDNA) DNA 1: AATCCGCAGTCACAGTGACTCAGCAGAATCTGAGCCTAG DNA 2: CTAGGCTCAGATTCTGCTGAGTCACTGTGACTGCGGATT |  |  |  |  | binds | binds | binds |
